The target in test [1] is cyno SIRPα stably expressed on CHOK1 cells (cyno). Nature of the test: FACS, CHOK1-Cyno SIRPα cells. (A flow cytometer gives signals particle by particle.)
The target of test [2] is human SIRPα v2 expressed on cells (CHOK1 stable line KYinno KC-1720) (human) (UniProt P78324). Nature of the test: competitive FACS, mFc-CD47 ECD on CHOK1-human SIRPα v2 cells.
Test [3] has the same target. Nature of the test: FACS, CHOK1-hSIRPα v2 cells.
Test [4] addresses T1, C57BL/6 mouse SIRPα ECD recombinant protein (6×His tagged) (C57BL/6 mouse) (UniProt P97797).
T1 sequence (looked up): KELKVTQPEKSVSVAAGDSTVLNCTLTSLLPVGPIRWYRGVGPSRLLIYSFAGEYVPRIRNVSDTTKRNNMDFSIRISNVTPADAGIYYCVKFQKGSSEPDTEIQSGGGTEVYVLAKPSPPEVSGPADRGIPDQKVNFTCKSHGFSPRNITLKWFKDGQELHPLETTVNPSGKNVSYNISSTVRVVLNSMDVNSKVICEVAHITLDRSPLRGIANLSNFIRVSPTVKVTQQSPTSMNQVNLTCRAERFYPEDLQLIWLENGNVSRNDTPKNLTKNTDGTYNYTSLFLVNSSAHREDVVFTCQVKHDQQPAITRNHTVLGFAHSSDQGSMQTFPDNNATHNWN
Nature of the test: ELISA, C57BL/6 mouse SIRPα ECD.

In test [5] the target is Human SIRPα v2 (antigen of the Octet and Biacore affinity measurements) (human) (UniProt P78324). Nature of the test: SPR (Biacore), 1:1 binding model. (In SPR one partner is held on a chip, and binding of the other changes the refractive index at the surface.)
For test [6], the target named is human SIRPα v2 expressed on cells (CHOK1 stable line KYinno KC-1720) (human) (UniProt P78324). Nature of the test: FACS, CHOK1 cells stably expressing human SIRPα v2.
For test [7] the target is unchanged. Nature of the test: FACS, CHOK1-hSIRPα v2 cells. The source holds these as a separate data set.
For test [8], the target named is Human SIRPα v2 (antigen of the Octet and Biacore affinity measurements) (human) (UniProt P78324). Nature of the test: BLI (Octet), 1:1 binding model. A general note: In BLI a coated tip is dipped into the sample, and binding shifts an interference pattern.

Like-named read-outs stand apart in the source and are kept apart here.

B1: hu1H9G4 (antibody, V domains shown)
VH: QVQLVQSGAEVKKPGASVKVSCKASGYTFTSYWITWVKQAPGQGLEWIGDIYPGSGSTNHIEKFKSKATLTVDTSISTAYMELSRLRSDDTAVYYCATGYGSSYGYFDYWGQGTLVTVSS
VL: DIQMTQSPSSLSASVGDRVTITCRASENIYSYLAWYQQKPGKAPKLLIYTAKTLAEGVPSRFSGSGSGTDFTLTISSLQPEDFATYYCQHQYGPPFTFGQGTKLELK
Broadly, the EC50 is the midpoint of the concentration-response curve. The term IC50 denotes the midpoint of a concentration-inhibition curve. For the molecule B1, in test [1], the EC50 is 0.72 nM and the TOP MFI is 14900 MFI. In test [2], the 50% inhibitory concentration (IC50) is 5.61 nM and the TOP blocking (%) was determined as 98.7%. In test [3], this molecule showed an EC50 of 0.85 nM and a TOP MFI of 18700 MFI. Besides, the OD450 at 100 nM in test [4] worked out at 0.23 OD450.

B2: 025c (antibody, V domains shown)
VH: EVQLQQSGAELVKPGASVKLSCTASGFNIKDYYMHWVKQRTEQGLEWIGRIDPEDGETKYAPKFQGKATITADTSSNTAYLQLSSLTSEDTAVYYCDRGLAYWGQGTLVTVSA
VL: QIVLTQSPAIMSASPGEKVTLTCSASSSVSSSYLYWYQQKPGSSPKLWIYSTSNLASGVPARFSGSGSGTSYSLTISSMEAEDAASYFCHQWSSYPYTFGGGTKLEIK
For orientation: Kd means the equilibrium constant for the complex coming apart. A low value points to a tighter complex. By koff is commonly meant the first-order rate constant of dissociation. By kon is commonly meant the rate constant with which the complex forms. Lower therefore signals slow association. In general, EC50 (read off the curve) refers to the concentration needed to bring the measured effect to its halfway point. Lower therefore signals an effect from little substance. In test [1], B2 registered an EC50 of 0.69 nM and a TOP MFI of 30800 MFI. Besides, in test [5], the Kd was determined as 1.69 nM, the dissociation rate constant (koff) was 0.00254 s⁻¹ and the kon stood at 1.51e+06 M⁻¹ s⁻¹. The molecule also showed an EC50 (read off the curve) in test [6] of 1 nM. In test [2], this molecule registered an IC50 of 0.63 nM and a TOP blocking (%) of 99.7%. For the same molecule, in test [7], the EC50 was 0.99 nM and the TOP MFI came to 53000 MFI. In test [3], this molecule displayed an EC50 of 1.34 nM and a TOP MFI of 51600 MFI. In test [8], this molecule gave a Kd of 2.67 nM, a koff of 0.00293 s⁻¹ and a kon of 1.1e+06 M⁻¹ s⁻¹.
